Measurements from paper PMC5719400, “Engineering an aldehyde dehydrogenase toward its substrates, 3-hydroxypropanal and NAD^+, for enhancing the production of 3-hydroxypropionic acid” (Scientific Reports, 2017).
Numbering of substitutions follows the chain as printed. Names and notes keep the numbering of the source.

Experiments:
Test in all cases: purified protein
Format in all cases: biochemical, Azospirillum brasilense
purified protein [1] = substrate: O=CCCO; conditions: 2 mM NAD+, 100 mM phosphate pH 8, 25 °C
From the text: (§1) (α-ketoglutaric semialdehyde dehydrogenase)

purified protein [2] = substrate: NC(=O)c1ccc[n+]([C@@H]2O[C@H](COP(=O)(O)OP(=O)(O)OC[C@H]3O[C@@H](n4cnc5c(N)ncnc54)[C@H](O)[C@@H]3O)[C@@H](O)[C@H]2O)c1; conditions: 3 mM 3-HPA, 100 mM phosphate pH 8, 25 °C, varied: cofactor
From the text: as §1

purified protein [3] = substrate: NC(=O)c1ccc[n+]([C@@H]2O[C@H](COP(=O)(O)OP(=O)(O)OC[C@H]3O[C@@H](n4cnc5c(N)ncnc54)[C@H](OP(=O)(O)O)[C@@H]3O)[C@@H](O)[C@H]2O)c1; conditions: 3 mM 3-HPA, 100 mM phosphate pH 8, 25 °C, varied: cofactor
From the text: as §1

B1: KGSADH (α-ketoglutaric semialdehyde dehydrogenase) (Azospirillum brasilense; A337R/A442P/P444T/R334Q) (protein)
chain: ANVTYTDTQLLIDGEWVDAASGKTIDVVNPATGKPIGRVAHAGIADLDRALAAAQSGFEAWRKVPAHERAATMRKAAALVRERADAIAQLMTQEQGKPLTEARVEVLSAADIIEWFADEGRRVYGRIVPPRNLGAQQTVVKEPVGPVAAFTPWNFPVNQVVRKLSAALATGCSFLVKAPEETPASPAALLRAFVDAGVPAGVIGLVYGDPAEISSYLIPHPVIRKVTFTGSTPVGKQLASLAGLHMKRATMELGGHAPVIVAEDADVALAVKAAGGAKFRNAGQVCISPTRFLVHNSIRDEFTRALVKHAEGLKVGNGLEEGTTLGALANPRQLTRMASVIDNARKVGASIETGGERIGSEGNFFAPTVIANVPLDADVFNNEPFGPVAAIRGFDKLEEAIAEANRLPFGLAGYAFTRSFANVHLLTQRLEVGMLWINQPPTTWPEMPFGGVKDSGYGSEGGPEALEPYLVTKSVTVMAV
notes: N-terminal His6-tag (pQE80L), expressed in E. coli DH10β, Ni-NTA purified; catalytic residues E253 and C287
Purified protein [1]; variant 106-QR
  Km: 0.29(±0.062) mM
  kcat: 5 ± 1.2 s⁻¹
  kcat/Km: 17000 ± 7800 M⁻¹ s⁻¹
Purified protein [2]; variant 106-QR
  Km: 0.025(±0.0045) mM
  kcat: 4.8 ± 0.93 s⁻¹
  kcat/Km: 192000 ± 72500 M⁻¹ s⁻¹

B2: KGSADH (α-ketoglutaric semialdehyde dehydrogenase) (Azospirillum brasilense) (protein)
chain: B1 chain with Q333R, R336A, P441A, T443P
notes: as for B1
Purified protein [3]
  Km: 2.3(±0.033) mM
  kcat: 8.6 ± 0.84 s⁻¹
  kcat/Km: 3700 ± 420 M⁻¹ s⁻¹
Purified protein [1]
  Km: 1.6(±0.14) mM
  kcat: 15 ± 2.1 s⁻¹
  kcat/Km: 9000 ± 2100 M⁻¹ s⁻¹
Purified protein [2]
  Km: 0.21(±0.018) mM
  kcat: 12 ± 1.7 s⁻¹
  kcat/Km: 57000 ± 13000 M⁻¹ s⁻¹

B3: KGSADH (α-ketoglutaric semialdehyde dehydrogenase) (Azospirillum brasilense; A110S/A337R/A442P/K273A/P444T/R334Q) (protein)
chain: B1 chain with A109S, K272A
notes: as for B1
Purified protein [1]; variant 104-QR
  Km: 0.43(±0.094) mM
  kcat: 6.7 ± 0.64 s⁻¹
  kcat/Km: 16000 ± 4900 M⁻¹ s⁻¹
Purified protein [2]; variant 104-QR
  Km: 0.033(±0.0089) mM
  kcat: 5.9 ± 0.61 s⁻¹
  kcat/Km: 179000 ± 66700 M⁻¹ s⁻¹

B4: KGSADH (α-ketoglutaric semialdehyde dehydrogenase) (Azospirillum brasilense; A337R/R334Q) (protein)
chain: B1 chain with P441A, T443P
notes: as for B1
Purified protein [3]; variant WT-QR
  Km: 0.81(±0.15) mM
  kcat: 4.4 ± 1.4 s⁻¹
  kcat/Km: 5400 ± 2700 M⁻¹ s⁻¹
Purified protein [1]; variant WT-QR
  Km: 0.55(±0.13) mM
  kcat: 6.8 ± 0.35 s⁻¹
  kcat/Km: 12000 ± 3600 M⁻¹ s⁻¹
Purified protein [2]; variant WT-QR
  Km: 0.044(±0.0033) mM
  kcat: 7.9 ± 0.75 s⁻¹
  kcat/Km: 180000 ± 30500 M⁻¹ s⁻¹

B5: KGSADH (α-ketoglutaric semialdehyde dehydrogenase) (Azospirillum brasilense; A337R/A442P/K273A/P444A/R334Q/T443E) (protein)
chain: B1 chain with K272A, T442E, T443A
notes: as for B1
Purified protein [3]; variant 108-QR
  Km: 0.66(±0.065) mM
  kcat: 4.5 ± 1.1 s⁻¹
  kcat/Km: 6900 ± 2300 M⁻¹ s⁻¹
Purified protein [1]; variant 108-QR
  Km: 0.17(±0.032) mM
  kcat: 6 ± 1.3 s⁻¹
  kcat/Km: 35000 ± 14000 M⁻¹ s⁻¹
Purified protein [2]; variant 108-QR
  Km: 0.037(±0.0024) mM
  kcat: 6.1 ± 0.64 s⁻¹
  kcat/Km: 165000 ± 28000 M⁻¹ s⁻¹
